This series is described as follows: soluble on expression in E. coli; label from the status in PepcDB or PDB records.
“SLYANYKRVYENEALETLKVYTTFLRNALIEVNTLMVHSQHFYKSFMGNLKYILDSVAVNKLKSNYNKDMPVVVVSAGPSLEKNIRFLKDCQDKCIIITGGRTLKTLLDLDIKPDYVCVVDPDVPAYDVMRGTFDCTAPLLFCEYTYYEILRDYKGEKIFFNDIGMLGLQKEFLNYDVDNIFEGGSVAHVCAGLGVYIGGDPIIFIGQDLAYTNDKAHADSAGDTNVEGDKKIVYVEDINGDIIKSDSVLNFYRIKLEEMTQLFKENNFINSTEGGANIKGTKIIPLKEVLKKFCLNKKKDYTLGENIGKYVSREQVVCKLMDAKKIMNKVKKEIEASIDLCSEFLEKENRWNKTIIDNINRKLSKTDKLINSSIGEMEFMRNLILPNIYESSMNKEYKQKYNETEKEKIKRVYKKNILLYNGIKTSIMEAGPEIEKCIKSLKES”: the “soluble on expression in E. coli” value was “not soluble”. Turning to “MGSDKIHHHHHHMTLWQPDPALIRRPAYQSLADQFARAIHDGRLANGARLPTHRRLADDLNLSVQTVSRAYEELIRRGLISGEIGRGSFVQTQRREPEPPYLPERLGEVIDLSILKPVCEPMHLERLKQALGWLAENLPSSSALSFRPNMVFPRHRAVAVEWLKLCGLDISAQNISLTNGATAGMTVALMSVAPPGSTVATEAIGHHTLVPLARYLGFNLQGLPIDDNGLIPEALDEACRLSDIRAVFVQPSVINPTATLMDAQRREQIAAVARKHDIAIIENDVLGPLVEDRPPPVAAFAPERTLYVTSFTKITVPGLRIGYLAAPDRYVAAVANRHLVSNWMATPLVAEIATKWVTDGTAMELVLWQRAALRRRQDIAAEVLARIDYRARRDGLHIWLQLPDDRAEEGFVAQARLQGVAIAPGTSFRISDAPWHPAVRISLGSTTEGELRAGLGVVTKLLLGDPEHLLLAI”, the “soluble on expression in E. coli” value was “not soluble”.

As to “GSTAAEKPKLHYFNARGRMESTRWLLAAAGVEFEEKFIKSAEDLDKLRNDGYLMFQQVPMVEIDGMKLVQTRAILNYIASKYNLYGKDIKERALIDMYIEGIADLGEMILLLPVCPPEEKDAKLALIKEKIKNRYFPAFEKVLKSHGQDYLVGNKLSRADIHLVELLYYVEELDSSLISSFPLLKALKTRISNLPTVKKFLQPGSPRKPPMDEKSLEEHRKIFRF”, the “soluble on expression in E. coli” value is reported as “soluble”. In the case of “MPPPGIPPPFPPMGLPPMSQRPPAIPPMPPGILPPMLPPMGAPPPLTQIPGMVPPMMPGMLMPAVPVTAATAPGADTASSAVAGTGPPRALWSEHVAPDGRIYYYNADDKQSVWEKPSVLKSKAELLLSQCPWKEYKSDTGKPYYYNNQSKESRWTRPKDLDDLEVLVKQEAAGKQQQQLPQTLQPQPPQPQPDPPPVPPGPTPVPTGLLEPEPGGSEDCDVLEATQPLEQGFLQQLEEGPSSSGQHQPQQEEEESKPEPERSGLSWSNREKAKQAFKELLRDKAVPSNASWEQAMKMVVTDPRYSALPKLSEKKQAFNAYKAQREKEEKEEARLRAKEAKQTLQHFLEQHERMTSTTRYRRAEQTFGELEVWAVVPERDRKEVYDDVLFFLAKKEKEQAKQLRRRNIQALKSILDGMSSVNFQTTWSQAQQYLMDNPSFAQDHQLQNMDKEDALICFEEHIRALEREEEEERERARLRERRQQRKNREAFQTFLDELHETGQLHSMSTWMELYPAVSTDVRFANMLGQPGSTPLDLFKFYVEELKARFHDEKKIIKDILKVNTAFEDFAHVISFDKRAAALDAGNIKLTFNSLLEKAEAREREREKEEARRMRRREAAFRSMLRQAVPALELGTAWEEVRERFVCDSAFEQITLESERIRLFREFLQVLEQTECQHLHTKGRKHGRKGKKHHHKRSHSPSGSESEEEELPPPSLRPPKRRRRNPSESGSEPSSSLDSVESGGAALGGRGSPSSHLLGADHGLRKAKKPKKKTKKRRHKSNSPESETDPEEKAGKESDEKEQEQDKDRELQQAELPNRSPGFGIKKEKTGWDTSESELSEGELERRRRTLLQQLDDHQ” it was “soluble”.

“MNFGACPADIEDDEVVASFNVYASPALVNQAHIFQYPLRRRQRPYEATEIKLFSTSGTVAEESEALLAQGKGSSVLQPGSRLTMKCSLDTFGSPSFRPLPEFAPDMLGQMELQRHHTFNYTLQSQPFLPQSNYVLGYITLEGIHLTPVSTIQQFTPALSIPESSTGAVRVTEAFCSQSNSTAMPGFAAADRIQRELRRQRSRVLNGEADTAQEIQFFRDDSVESSAMRSRLCSSTLERITGNLNAASEPAEVENSLFPPEILQSGGISGGDEAHPSMIIHRFANCKSVAEQTNQLLQRCHILTLQRLQNIVVPYTSNEVVKTMSTVPEAQLVEALKSCAVWLHGVWVSRYCDQFRGSVAALREVILARFYQSEDGSVARADFNAWITTSAARRSIKEILATVAVLNTDEPDPSKRRWRLKYVPEDRAAREANLRDFKAKFAAEEASQHEAWRRRCAQVMAHIPYINAGRPVSQLCLRPRSTPPTTGTAASATLPYGSPNAAQSIAPSVSSMTSGHSGSGVTASASPFSSPAPGADLGFKDADIAPIRHYIRELFAEHGVINKQRVKDLVIKAQEARYPHATKAMLSTALQQCLDKFTDATWILKSAGEPIVDYYRPAILYVVLELRQFEMAALMKRLEEVVRARGLTSPPESAALRGRIGGASGTLEAVVQRVVAEVAEFKAGGRLWHIKGGNLMNE”: the “soluble on expression in E. coli” value is “not soluble”. Regarding “MAGYGAKGIRKVGAFRSGLEDKVSKQLESKGIKFEYEEWKVPYVIPASNHTYTPDFLLPNGIFVETAGLWESDDRKKHLLIREQHPELDIRIVFSSSRTKLYKGSPTSYGEFCEKHGIKFADKLIPAEWIKEPKKEVPFDRLKRKGGKK”, the “soluble on expression in E. coli” value is on record as “soluble”. In the case of “MSLAEAVAQGAFGKVISVRGSGARVGLLPSSRLVPSAVRATVGRFVSIRTASSTIIAIITEVSSENLAETDEHIAVASVDLLGEILPGPLRPKFQRGVTNYPTIGDSVDLISSDDLRIVYEPTGSDQIDVGTLQQDPSVIAYVDIEEMLSKHFAVLGSTGVGKSTGVSLLLNEILKSRPALRIFLLDVHNEYGRSFGDKALVLNPRNLKLPFWLFNFEEIVDVLFAGRPGVPEELDILAEVIPVAKGLYVQYTSTDRLGLKRVDPKSIGYTADTPVPYRLVDLISLIDERMGKLENRSSRIIYHKLISRIETVRNDPRYAFMFDNANVGGDTMADVISHLFRLPANGKPMTIMQLAGFPAEVVDSVVSVLCRMAFDFGLWSDGVSPLLFVCEEAHRYAAADRAIGFGPTRKAVSRIAKEGRKYGVYLGLVTQRPAELDATILSQCNTLFAMRLANDRDQSLLRSAVSDAAANLLSFVPSLGTREVLAFGEGVALPTRLRFKEVPAHQLPRSEAAISTVPSAAAGNDMHFVSAVLERWRGATSHRDVPNDPGIAERPLARTLDAPMLQPSLGLDPDRFSLLKKPLREGHHHHHH” it was “soluble”.

For “MTLPPVGSTLYSKGTHNYKGLFKECATVGSTLYSKGTHNDADNVPVLRLVGSTLYSKGTHNSRLARPPTRLVGSTLYSKGTHNMILDWWLGRWNVQ”, the “soluble on expression in E. coli” value is given as “not soluble”. Next, “MSLTTNPVKHTDEHIGALYFSDLPGISNLTCTANYIGGKFWTTAHHCVEGRSRFVGFIEQSDGQYAGIEHVYTKSSDYDIALIKVGSGIDAEQFSLTRSRPAVGKMLEVVGFAVVNPFSSRATMEVTNSNTVANYPMSNLYYKDVFSAKPAGSFPYVISGGDSGAAVWSGETMYGIASGSNGSTKNLAANVGPHVSWIEQTMQNNSNSSPYEILQAFRGGLATSYPKYNQIRDLVDSSEGHHHHHH”: “not soluble”. As to “MDKVLDSALLSSANKRKGILAIGAHPDDIELGCGASLARLAQKGIYIAAVVMTTGNSGTDGIIDRHEESRNALKILGCHQTIHLNFADTRAHLQLNDMISALEDIIKNQIPSDVEIMRVYTMHDADRHQDHLAVYQASMVACRTIPQILGYETPSTWLSFMPQVFESVKEEYFTVKLAALKKHKS”, the “soluble on expression in E. coli” value is “soluble”. Next, “MSAPLKHPNAVVLQPPTVTISPLIRFGRYAALSLGVVYGFFRLRQIREYHADIREWDHEKAVAAAEEAAKKKKWLAKDEMRYLMQVVNIPFEEGVKQFGVADLYKED”: “not soluble”; “MSLKPKYKQIIDDIISQIDSGDLEQGMQLPSQRDMASLYQVNRSTVIQALDILKSQGIIEGREKQRLYVSGNTWHTYIKNNINWQNYISHSTTKNNQYFVQQINKLEFHTNMIRLGTGELAPDLIPNEQFKEILSKCHTPVLNTNYEPPQGNLKLREAVAQYMQKSGVSCTVDHICITSGALQGLKLIADGLLIPQSKIIVESPSYINSIRTWHNMRADIQQISISDIKSNINNIFKAQSQYTNSIFYCIPTLHNPTQHSYSTEEKQKIIMQCEQHGIPIVEDNVYGDLYFNHERPKPLKSFDTNDNILYLNSLSKTVSPGLRVGWIVAKPSVAAHLADLKMQNDYGASSISQYIATQWLTHPQYHDQHLKMLKNQLLIKRNLFLESLKKYFSDFGSWSTPEGSFYIWFQFKFSIDMKRLFDEAIAENILINPGEVYDKDARDCIRFSYAYVDAEDIDETLKHLSKIIQTRFTPPSSHIGKGNEGHHHHHH”: “not soluble”. In the case of “MSAKPVIVGGGPAGMSAAMELARHGVECVLLDEASRVGGVVYRGPLREGVVLDYLGERYRENMQALHREFEQVRDRIDIRLNTRVVGGGEGELFALTPDERVEAVPFSQLLLAAGCHERSVPFPGWTLPGVIMLGGLQLQIKSGVVKPLGRTVLVGTGPLLPLVACQLHRAGVEVAGVYEASAFGRLAKETIALLNQPQLFLDGLSMVAYLKRHGIPLHYGWGVVEAHGDAELGEVTVAPYDAEWRADLTRSRRLPAQTLAVGYGFIPRTQLTQQMGLEHRYADDGYLKPVNDEWQRSSRGNIHLAGDIGGLRGGEAAMISGRIAALSMLLQLGKLDEQQALRQRQACLDQMASILRFRKGIDSFTRRGRGQLALPARDTVICRCEHATRQDIDTALEQGVNDLISLKMRTRVSMGDCQGKMCVGYCSDRLREHTGKRDVGWIRPRFPLDPLPFSAFSAIDAQQTEEILEHHHHHH” it was “not soluble”; in that of “MGSDKIHHHHHHMLDPRSVPFAAQIHPQARPARRLTWDSREAGPDTAFVALPGEKMHGNRFVERALAAGAPFVLTDLDVPRAVRVDDARGALFAWARSERAKNPLVVGITGSAGKTTAKSYAAAALDAHFMPVFNTMPAIACFLVQYGASQKPLVVEMGIDHIGEMAELMDLVRPDVGVVTTIGPAHLEQFGMVETIAHEKGQILTARRALVGSQAAAFFPKAQFPHVDSYGFGDVTFRGEGLELSPQAARFRFGGMGVILPLASRVQAEAAVLGMVLAREAGIALADAAVRMSAVEVPGGRYRLHPGRFTVIDDAYNASPVAVRAALDALHALKPEGEVGRRISVLGRMLELGPTERELHAEVGSYAREQADLTYGVGEFAQELGERAFATVPELLADLLNEVRDGDIVLVKASRGISLTPEQRAVTGVGLDVVVEALLDQRDR”, “not soluble”; in that of “VDRYNDQASGRALIEIRLCNERATPMPIPIGLWMFQTKLHVNAGGADVFLPVCDVLEQDLAERDEEVRQLNLQYRNRLEYAIGRTCSAAWSVNGSRRPSAVWTTWLPVAETPHTRARSVENALLSMDSRGGVT”, “not soluble”. Next, “MGSSHHHHHHSSGLVPRGSHMIRNRVMNSVVNKYLLHNRSIMFKNDQDVERFFYKREIENRKKHKQPSTLNVKANLEKLSLDDMQVFRFNFRHQIDKKILYIHGGFNALQPSPFHWRLLDKITLSTLYEVVLPIYPKTPEFHIDDTFQAIQRVYDQLVSEVGHQNVVVMGDGSGGALALSFVQSLLDNQQPLPNKLYLISPILDATLSNKDISDALIEQDAVLSQFGVNEIMKKWANGLPLTDKRISPINGTIEGLPPVYMFGGGREMTHPDMKLFEQMMLQHHQYIEFYDYPKMVHDFPIYPIRQSHKAIKQIAKSIDEDVTQNN”: “soluble”; “FGLETVSENELAHSEEELRIILSESYKSGEINQSEFKYVNKIFEFDDRLAKEIMIPRTEIVSLPHDIKISEMMDIIQIEKYTRYPVEEGDKDNIIGVINIKEVLTACISGEVSVDSTISQFVNPIIHVIESAPIQDLLVKMQKERVHMAILSDEYGGTAGLVTVEDIIEEIVGEIR”: “soluble”.
